Each block holds one substance with its values, some of them ahead of it.
Key:
[1] = target: PD1 (over-expressed on cells); assay: cell-cell conjugation: dye-labelled A20-PD-L1 and A20-PD1 cells mixed, double-positive events read by flow cytometry (positive control)
[2] = target: VSIG8 (over-expressed on cells; species not stated) (Homo sapiens (Human)) (UniProt P0DPA2); assay: cell-cell conjugation: two differently dye-labelled lots of A20-VSIG8 cells mixed, double-positive events read by flow cytometry (negative control)
[3] = target: VSIG8 (over-expressed on cells; species not stated) (Homo sapiens (Human)) (UniProt P0DPA2); assay: cell-cell conjugation: dye-labelled A20-VISTA and A20-VSIG8 cells mixed, double-positive events read by flow cytometry

Q2 (percent double-positive, conjugated cells) [1]: 28
Substance: PD-L1 (over-expressed on A20 cells) (ligand)

Q2 (percent double-positive, conjugated cells) [2]: 3.92
Substance: VSIG8 (over-expressed on cells; species not stated) (from UniProt P0DPA2 22-414) (receptor)

Q2 (percent double-positive, conjugated cells) [3]: 11.4
Substance: VISTA (over-expressed on A20 cells; species not stated) (from UniProt Q9H7M9 33-311) (ligand)

— patent US20160159927A1
